Twelve molecules from US20250144213A1 (UTC THERAPEUTICS SHANGHAI, published 2025) can be followed below.

Experiment [1] concerns the target T1, BCMA-Fc recombinant protein (human, UniProt Q02223 1-54).
T1 construct: Soluble staining reagent, 5 µg/ml; not shown: Fc part
T1 sequence (looked up): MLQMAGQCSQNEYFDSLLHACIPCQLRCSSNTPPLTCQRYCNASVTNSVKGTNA
In words: flow cytometry: lentivirally transduced CAR-T cells stained with 5 µg/ml BCMA-Fc, detected with anti-human IgG Fc (FIG. 17B). Background: In flow cytometry, cells or beads pass a laser one at a time.

Experiment [2] addresses T2, CD40-Fc recombinant protein (human, UniProt P25942 21-193).
T2 construct: Soluble staining reagent; also called CD40-Fc protein; not shown: Fc part
In words: FACS staining of T cells expressing the anti-CD40 scFv-CD28 fusion with CD40-Fc protein (FIG. 64).

T2 sequence (P25942 21-193 limits assumed): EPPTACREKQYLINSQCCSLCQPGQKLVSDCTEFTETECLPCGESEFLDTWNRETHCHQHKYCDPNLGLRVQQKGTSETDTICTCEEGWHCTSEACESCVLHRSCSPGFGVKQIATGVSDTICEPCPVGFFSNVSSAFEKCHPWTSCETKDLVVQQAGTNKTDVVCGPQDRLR

B1: anti-BCMA scFv BCMA31 (scFv)
scFv: QSALTQPPSASGSPGQSVTISCTGTSSDVGTYNYVSWYQQHPGKAPKLMIYDVNQRPSGVPDRFSGSKSGNTASLTVSGLQAEDEADYYCSSYGGSNNLVFGGGTKVTVLGGGGSGGGGSGGGGSEVQLVESGGGLIQPGGSLRLSCAASGFTFSSYWMSWVRQSPGKGLEWVANIKPDGSDKYYVDSVKGRFTISRDNAKNSLDLQMNSLRGEDTAIYYCARGATTYGSWGQGTLVTVSS
notes: also called BCMA31 scFv; BCMA31 CAR
For B1, the binding result in experiment [1] is reported as “binds”.

B2: anti-BCMA scFv BCMA32 (scFv)
scFv: QSALTQPASVSGSPGQSITISCTGTSSDVGGYNYVSWYQQHPGKAPKLMIYDVSKRPSGVSNRFSGSKSGNTASLTISGLQAEDEADYYCSSYTSSSTVVFGGGTKLTVLGGGGSGGGGSGGGGSQVQLQESGAEVKKPGSSVKVSCKASGGTFSRYAISWVRQAPGQGLEWMGGIIPFFGTSDYAQKFQGRVTITADESTSTAYMDLSRLRSEDTAVYYCAVRVATTGTGFYYAMDVWGQGTTVTVSS
notes: also called BCMA32 scFv; BCMA32 CAR
As to B2, in experiment [1], the binding result is “binds”.

B3: anti-CD40 scFv 40-47 (in LACOSTIM 40-47.28) (scFv)
scFv: QSALTQPASVSGSPGQSITISCTGTSSDVGAYNYVSWYQQLPGKTPKLMIYDVTNRPSGVSNRFSGSKSGNTASLTISGLQAEDEAYYYCGSYTTSSTLIFGGGTELTVLGGGGSGGGGSGGGGSEVHLVESGGGLVQPGGSLRLSCAASGFTFSSNWMSWVRQAPGKGLEWVANINQDGSEKYYVDSVKGRFTISRDNAKNSLYLQLNSLRAEDTAEYYCARGGYRYAYWGQGTLVTVSS
notes: Tested on T cells as part of the LACOSTIM 40-47.28 (scFv fused with CD28), co-electroporated with the anti-Her2 CAR 4D5.BBZ; also called 40-47 scFv
As for B3, in experiment [2], the binding result is “binds”.

B4: anti-BCMA scFv BCMA28 (scFv)
scFv: QSALTQPPSVSEAPRQRVTISCSGSSSNIGQNAVNWYQKLPGKAPKLLIYYNDLVSSGVSDRFSGSKSGTSASLAISGLQSEDEADYYCATWDDSLNGVVFGGGTKVTVLGGGGSGGGGSGGGGSQVQLVQSGPGLVKPSQTLSLTCAISGDSVSSNSAAWNWIRQSPSRGLEWLGRTYYRSKWYNDYAVSVKSRITINPDTSKNQFSLQLNSVTPEDTAVYYCARDYYYGMDVWGQGTTVTVSS
notes: also called BCMA28 scFv; BCMA28 CAR
Take B4: in experiment [1], the binding result is given as “binds”.

B5: anti-CD40 scFv 40-37 (in LACOSTIM 40-37.28) (scFv)
scFv: SYELTQPPSVSVSPGQTASITCSGDKLGNKYASWYQQKPGQSPVLVIFQDSRRPSGIPERFSGSNSGNTATLTISGTQAMDEADYYCQAWDSSTALFGGGTKLTVLGGGGSGGGGSGGGGSQVQLVQSGGGVVQPGRSLRLSCAASGFTFSSYAMHWVRQAPGKGLEWVAVISKDGSYENYVDSVKGRLAISRDNSKNTLFLQMDSLRPEDTALYFCARDYWYGMDVWGQGTTVTVSS
notes: Tested on T cells as part of the LACOSTIM 40-37.28 (scFv fused with CD28), co-electroporated with the anti-Her2 CAR 4D5.BBZ; also called 40-37 scFv
For the molecule B5, the binding result in experiment [2] is “binds”.

B6: anti-BCMA scFv BCMA27 (scFv)
scFv: QSALTQPPSASGSPGQSVTISCTGSRSNVGSYNDVSWYQQHPGKAPKLIIYDVDKRPAGVPDRFSGSKSGNTASLTVSGLQAEDDADYYCSSYGGTYSLFVFGTGTELTVLGGGGSGGGGSGGGGSEVQLVESGGDLVQPGGSLRLSCAASGFTFSSYGMHWVRQAPGKGLEWVAVISYDGSNKYYADSVKGRFTISRDNSKNTLYLQMNSLRAEDTAVYYCAKEEFYGDSSYGMDVWGQGTTVTVSS
notes: also called BCMA27 scFv; BCMA27 CAR
Turning to B6, the binding result in experiment [1] was “binds”.

B7: anti-CD40 scFv 40-52 (in LACOSTIM 40-52.28) (scFv)
scFv: QSALTQPPSASGSPGQSVTISCTGTSSDVGAYNFVSWYQQHPGNAPKLIIYDVRKRPSGIPDRFSASKSGNTASLTVSGLQADDEADYYCSSYAGNNNLVFGGGTKLTVLGGGGSGGGGSGGGGSQVQLVQSGAEVKKPGSSVKVSCKASGGTFSSYAISWVRQAPGQGLEWMGMINPSGGTTSYAQKFQGRVTMTRDTSTSTVYMELSSLRPEDTAVYYCARGFRMDQWGQGTLVTVSS
notes: Tested on T cells as part of the LACOSTIM 40-52.28 (scFv fused with CD28), co-electroporated with the anti-Her2 CAR 4D5.BBZ; also called 40-52 scFv
B7: the binding result in experiment [2] was “binds”.

B8: anti-BCMA scFv BCMA24 (scFv)
scFv: QSVLTQPPSASGTPGQRVTISCSGSSSNIGSYSVNWYQQIPGTAPKLLIYSNNQRPSGVPDRFSGSKSGTSASLAISGLQSEDEADYSCAAWDDSLNGVVFGGGTKLTVLGGGGSGGGGSGGGGSQVQLVQSGAEVKKPGSSVKVSCKASGGTFSSYAISWVRQAPGQGLEWMGGIIPIFGTANYAQKFQGRVTITADESTSTAYMELSSLRSEDTAVYYCARGSFYSSVNVWGQGTTVTVSS
notes: also called BCMA24 scFv; BCMA24 CAR
As for B8, in experiment [1], the binding result was “binds”.

B9: anti-CD40 scFv 40-45 (in LACOSTIM 40-45.28) (scFv)
scFv: QSALTQPASVSGSPGQSITISCTGTSSDVGGYKYVSWYQQHPGKAPKLMIYDVSNRPSGVSNRFSGSKSGNTASLTISGLQAEDEADYYCSSYTSSSTPHVVFGGGTKVTVLGGGGSGGGGSGGGGSEVHLVESGGGVVQPGRSLRLSCAASGFPFSRYGMHWVRQAPGKGLEWVSYISSSGSTIYYADSVKGRFTISRDNSKNTVSLQMNSLRADDTAVYYCSRGTRPGITGRLGYWGQGTLVTVSS
notes: Tested on T cells as part of the LACOSTIM 40-45.28 (scFv fused with CD28), co-electroporated with the anti-Her2 CAR 4D5.BBZ; also called 40-45 scFv
As for B9, the binding result in experiment [2] was “binds”.

B10: anti-BCMA scFv BCMA22 (scFv)
scFv: QSALTQPASVSGSPGQSITISCTGTSSDVGGYNYVSWYQQHPGKAPKLMIYEVTNRPSGVSNRFSGSKSGNTASLTISGLQAEDEAHYYCISYTSSSTLDYVFGTGTKVTVLGGGGSGGGGSGGGGSEVQLVESGPGLVKPSGTLSLTCAVSGGSISSSNWWSWVRQPPGKGLEWIGEIYHSGSTNYNPSLKSRVTISVDKSKNQFSLKLSSVTAADTAVYYCARVGSGYSYGYGDRVLDYWGQGTLVTVSS
notes: also called BCMA22 scFv; BCMA22 CAR
Take B10: the binding result in experiment [1] is listed as “binds”.

B11: anti-BCMA scFv BCMA30 (scFv)
scFv: DIQMTQSPSFLSASVGDRVTITCRASQGISSYLAWYQQKPGKAPKLLIYAASTLQSGVPSRFSGSGSGTEFTLTISSLQPEDFATYYCQQLNSYPPWTFGQGTKVEIKGGGGSGGGGSGGGGSQVQLVQSGAEVKKPGESLKISCKGSGYRFTSYWIGWVRQMPGKGLEWMGIIYPGDSDTRYSPPFQGQVTISADKSIDTAYLQWSSLKASDTAMYYCARLDASGSQRGGMDVWGQGTTVTVSS
notes: also called BCMA30 scFv; BCMA30 CAR
In the case of B11, the binding result in experiment [1] is on record as “binds”.

B12: anti-BCMA scFv BCMA23 (scFv)
scFv: QSALTQPPSASGTPGQRVTISCSGSSPNIGGNSVNWYQQLPGTAPKLLMYTNNQRPSGVPDRFSGSKSGTSASLAISGLQSEDEADYYCAAWDDSLNGVVFGGGTKLTVLGGGGSGGGGSGGGGSQVQLVQSGAEVKKPGESLKISCKGSGYSFTSYWIGWVRQMPGKGLEWMGIIYPGDSDTRYSPSFQGQVTISADKSISTAYLQWSSLKASDTAMYYCARRGGALDYWGQGTLVTVSS
notes: also called BCMA23 scFv; BCMA23 CAR
As to B12, the binding result in experiment [1] was “binds”.
